According to patent US4783441A, “Aqueous protein solutions stable to denaturation” (Hoechst Aktiengesellschaft, priority 1979, dated 1988):
Each block holds one molecule with its values, some of them ahead of it.

Columns and labels:
[1] = Shaking test of albumin solutions at 37° C. (turbidity from denatured protein), Example 1b; assay type: physicochemical; details: 0.1% solution in 0.01M phosphate buffer pH 7, shaken at 37° C.
[2] = Shaking test of peptide hormone solutions at 37° C., Example 5; details: for appearance after a few days of shaking: 0.1% solution in 0.05M Tris/HCl buffer pH 7.5, shaken at 37° C., without stabilizer; for appearance of stabilized samples: 0.1% solution in 0.05M Tris/HCl pH 7.5, shaken at 37° C., with 10 ppm block polymer (PPG MW 2,000, 5% PEG each side)
[3] = Adsorption of proteins on polystyrene beads at 5° C., protein concentration in filtrate, Example 3; assay type: physicochemical; details: for protein concentration in solution, A: A = 3 ml of protein solution + 450 μl of buffer (no polystyrene), phosphate buffer pH 7; for protein concentration in solution (filtrate), B: B = after contact with treated polystyrene surfaces (block polymer PPG MW 2,250, 5% PEG each side; 20 ppm present); for protein concentration in solution (filtrate), B / protein concentration in solution (filtrate), C: shaken at 5° C., 0.2 μm filtered; for protein concentration in solution (filtrate), C: C = after contact with untreated polystyrene surfaces
Description: 10 ml of an aqueous suspension of polystyrene beads (Dow-Latex®) having an average diameter of 0.481 μm were divided in two aliquots, one of which remained untreated while the other was shaken for 2 days at room temperature with 50 mg of a block polymer consisting of a linear polypropylene glycol chain with an average molecular weight of 2,250 (Dalton) on each side of which 5% of polyethylene glycol had been added by polymerization. The excess block polymer was then removed by dialysis against an aqueous solution containing 20 ppm of the same polymeric, surface-active substance.
Two times 3 ml portions of a solution of the proteins indicated in the following table in the given concentrations in phosphate buffer, pH 7, were prepared and each solution was shaken at 5° C. with 500 μl each of the untreated polystyrene suspension or the polystyrene suspension treated as described above, the latter still containing 20 ppm of the block polymer. Each sample was then filtered to clarity through a 0.2 μm filter.
A=3 ml of the respective protein solution+450 μl of buffer
B=after contact with treated polystyrene surfaces
C=after contact with untreated polystyrene surfaces.

[4] = Adsorption of β-galactosidase on silicone oil emulsion, enzyme activity in aqueous phase, Example 2; assay type: physicochemical
Description: Ten samples of 10 ml each of a 0.01% solution of the enzyme β-galactosidase from E. coli in 0.01M phosphate buffer, pH 7, with 3×10^6 μU/ml were admixed stepwise with 10 to 100 mg of silicone oil AK 350 and the suspensions were shaken for 48 hours at 5° C. Emulsions were formed which could be separated into two phases by ultracentrifugation (40,000 g, 30 minutes, 4° C.). The enzyme activity in the aqueous phase was determined.

[5] = Shaking test of protein solutions at 37° C. with analytical ultracentrifuge check, Example 6; assay type: physicochemical
Description: 0.1% solutions of egg albumin, human immunoglobulin-G and myoglobin of the whale, respectively, in 0.01M phosphate buffer, pH 7, and analogous solutions containing 0.1%, calculated on the weight of the solution, of the following compound [drawing 4] in which n and m are chosen to obtain a compound having an average total molecular weight of 12,500 Daltons with an ethylene oxide proportion of 40%, were freed from aggregates by ultracentifugation (for example 100,000 g/90 minutes). Ampules containing 10 ml each of the solutions were shaken at 37° C.

Molecule: bovine serum albumin: bovine serum albumin, 0.1% solution
appearance of sample containing stabilizer ([1]; with 10 ppm block polymer (polypropylene glycol MW 1,750, 5% polyethylene glycol on each side)): still limpid after several month | time after which sample became strongly turbid (denatured protein) ([1]; without stabilizer): 7 days

appearance after a few days of shaking [2]: had become turbid
Molecule: gastrin

appearance after a few days of shaking [2]: had become turbid | appearance of stabilized samples [2]: remained clear even after several months
Molecule: cholecystokinin

Molecule: adrenocorticotropic hormone: peptide hormone (SYSMEHFRWGKPVGKKRRPVKVYPNGAEDESAEAFPLEF; Corticotropin; UniProt P01189 138-176, looked up)
appearance after a few days of shaking [2]: had become turbid | appearance of stabilized samples [2]: remained clear even after several months

Molecule: gastrin inhibiting polypeptide: peptide hormone
appearance after a few days of shaking [2]: had become turbid

appearance after a few days of shaking [2]: had become turbid | appearance of stabilized samples [2]: remained clear even after several months
Molecule: calcitonin

Molecule: secretin: peptide hormone
protein concentration in solution, A [3]: 1.0 mg/mL | protein concentration in solution (filtrate), B [3]: 1.0 mg/mL | protein concentration in solution (filtrate), C [3]: 0.3 mg/mL | appearance after a few days of shaking [2]: had become turbid

Molecule: β-galactosidase: enzyme β-galactosidase from E. coli
enzyme adsorbed by silicone oil emulsion ([4]; 0.01% solution, 0.01M phosphate buffer pH 7, 10 to 100 mg silicone oil AK 350, shaken 48 hours at 5° C., without stabilizer): up to 70% | enzyme activity adsorbed on silicone oil ([4]; same test in the presence of 100 ppm of compound drawing 2): no enzyme activity had been adsorbed

Molecule: Lysozyme
protein concentration in solution, A [3]: 1.0 mg/mL | protein concentration in solution (filtrate), B [3]: 0.95 mg/mL | protein concentration in solution (filtrate), C [3]: 0.25 mg/mL

Molecule: Insulin
protein concentration in solution, A [3]: 1.0 mg/mL | protein concentration in solution (filtrate), B [3]: 1.0 mg/mL | protein concentration in solution (filtrate), C [3]: 0.2 mg/mL

B1: Egg-albumin: egg albumin (protein, UniProt P01012 2-386, looked up)
Ovalbumin: GSIGAASMEFCFDVFKELKVHHANENIFYCPIAIMSALAMVYLGAKDSTRTQINKVVRFDKLPGFGDSIEAQCGTSVNVHSSLRDILNQITKPNDVYSFSLASRLYAEERYPILPEYLQCVKELYRGGLEPINFQTAADQARELINSWVESQTNGIIRNVLQPSSVDSQTAMVLVNAIVFKGLWEKAFKDEDTQAMPFRVTEQESKPVQMMYQIGLFRVASMASEKMKILELPFASGTMSMLVLLPDEVSGLEQLESIINFEKLTEWTSSNVMEERKIKVYLPRMKMEEKYNLTSVLMAMGITDVFSSSANLSGISSAESLKISQAVHAAHAEINEAGREVVGSAEAGVDAASVSEEFRADHPFLFCIKHIATNAVLFFGRCVSP
protein concentration in solution, A [3]: 0.5 mg/mL | protein concentration in solution (filtrate), B [3]: 0.50 mg/mL | protein concentration in solution (filtrate), C [3]: 0.22 mg/mL | appearance of samples without stabilizer ([5]; 0.1% solution in 0.01M phosphate buffer pH 7, freed from aggregates, shaken at 37° C., without stabilizer): became strongly turbid after a few hours | appearance of samples containing surface-active substance ([5]; 0.1% solution in 0.01M phosphate buffer pH 7, shaken at 37° C., with 0.1% of compound drawing 4 (MW 12,500, 40% ethylene oxide)): remained limpid for several months | new aggregates in analytical ultracentrifuge ([5]; samples with 0.1% of compound drawing 4 after shaking at 37° C.): no new aggregate could be found
